Measured values reported in paper PMC5489143, “One ligand, two regulators and three binding sites: How KDPG controls primary carbon metabolism in Pseudomonas” (PLoS Genetics, 2017).

What was measured:
RccR (RccR-His) = target: T1, RccR (RccR-His) (Pseudomonas paralactis, UniProt A0A0R3AJU3); assay: SPR (ReDCaT, Biacore T200), change of RccR binding to immobilised DNA; settings: effector; lowers binding to aceE and rccR sites, raises binding to aceA 28 bp site; 0.5 uM RccR-His, 0-1000 uM ligand, 10 mM Hepes pH 7.4, 300 mM NaCl, 3 mM EDTA, 25 C
T1 construct: gene hexR; full gene in pET42b, E. coli BL21(DE3) pLysS; C-terminal His tag kept; nickel and heparin columns
T1 sequence (A0A0R3AJU3 1-288): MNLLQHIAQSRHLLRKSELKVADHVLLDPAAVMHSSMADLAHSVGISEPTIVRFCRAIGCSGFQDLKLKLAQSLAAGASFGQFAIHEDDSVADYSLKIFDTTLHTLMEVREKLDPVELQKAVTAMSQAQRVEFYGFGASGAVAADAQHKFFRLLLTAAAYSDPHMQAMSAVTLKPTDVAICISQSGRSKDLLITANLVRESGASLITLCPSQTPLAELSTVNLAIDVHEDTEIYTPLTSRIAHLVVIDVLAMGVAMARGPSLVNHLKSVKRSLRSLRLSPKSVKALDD

[1] = test system: RccR-His (Pseudomonas fluorescens SBW25); assay: DNase I footprinting; settings: full protection concentration, SPR: 10 mM Hepes pH 7.4, 300 mM NaCl, 3 mM EDTA, 0.05% Tween20, 25 C, DNase I footprint: 10 mM Tris-HCl pH 8.0, 50 mM NaCl, 10 mM KCl, 5 mM MgCl2, 1 mM DTT …

For O=C(O)C(=O)C[C@H](O)[C@H](O)COP(=O)(O)O [KDPG, 2-keto-3-deoxy-6-phosphogluconate], the “%Rmax” value (RccR (RccR-His)) was “KDPG addition decreased the affinity of RccR-His for both aceE and rccR consensus sequences”.

For aceA promoter DNase I probe, the binding signal ([1]; lower affinity than aceE and rccR) was 80 nM.

With aceE promoter DNase I probe the binding signal ([1]; two sites) was 10 nM.

With rccR promoter DNase I probe the binding signal [1] was 20 nM.
